Publication PMC5090061
Substitutions are numbered along the chain they refer to. In names and notes the source's numbering stands.

B1: Full-length human MCAK-his6-EGFP (wild type) (natural protein)
chain: MAMDSSLQARLFPGLAIKIQRSNGLIHSANVRTVNLEKSCVSVEWAEGGATKGKEIDFDDVAAINPELLQLLPLHPKDNLPLQENVTIQKQKRRSVNSKIPAPKESLRSRSTRMSTVSELRITAQENDMEVELPAAANSRKQFSVPPAPTRPSCPAVAEIPLRMVSEEMEEQVHSIRGSSSANPVNSVRRKSCLVKEVEKMKNKREEKKAQNSEMRMKRAQEYDSSFPNWEFARMIKEFRATLECHPLTMTDPIEEHRICVCVRKRPLNKQELAKKEIDVISIPSKCLLLVHEPKLKVDLTKYLENQAFCFDFAFDETASNEVVYRFTARPLVQTIFEGGKATCFAYGQTGSGKTHTMGGDLSGKAQNASKGIYAMASRDVFLLKNQPCYRKLGLEVYVTFFEIYNGKLFDLLNKKAKLRVLEDGKQQVQVVGLQEHLVNSADDVIKMIDMGSACRTSGQTFANSNSSRSHACFQIILRAKGRMHGKFSLVDLAGNERGADTSSADRQTRMEGAEINKSLLALKECIRALGQNKAHTPFRESKLTQVLRDSFIGENSRTCMIATISPGISSCEYTLNTLRYADRVKELSPHSGPSGEQLIQMETEEMEACSNGALIPGNLSKEEEELSSQMSSFNEAMTQIRELEEKAMEELKEIIQQGPDWLELSEMTEQPDYDLETFVNKAESALAQQAKHFSALRDVIKALRLAMQLEEQASRQISSKKRPQ
B2: Full-length human MCAK-his6-EGFP K524A (natural protein)
chain: B1 chain with K524A
B3: Full-length human MCAK-his6-EGFP R528A (natural protein)
chain: B1 chain with R528A
B4: Full-length human MCAK-his6-EGFP E525A (natural protein)
chain: B1 chain with E525A

biological target: GMPCPP-stabilized microtubules of porcine brain tubulin (porcine) (UniProt P02550); experiment: single-molecule TIRF microscopy; rhodamine-labelled GMPCPP-stabilized microtubules stuck onto the flow-chamber surface; 1–6 nM MCAK-GFP or GFP-labelled mutant in BRB20 pH 6.9, 75 mM KCl, 1 mM ATP, 0.05% Tween 20, 0.1 mg/ml BSA; 25°C; duration of GFP events at the microtubule end and on the lattice measured from kymographs
Chain of UniProt P02550 (P02550 whole entry, looked up): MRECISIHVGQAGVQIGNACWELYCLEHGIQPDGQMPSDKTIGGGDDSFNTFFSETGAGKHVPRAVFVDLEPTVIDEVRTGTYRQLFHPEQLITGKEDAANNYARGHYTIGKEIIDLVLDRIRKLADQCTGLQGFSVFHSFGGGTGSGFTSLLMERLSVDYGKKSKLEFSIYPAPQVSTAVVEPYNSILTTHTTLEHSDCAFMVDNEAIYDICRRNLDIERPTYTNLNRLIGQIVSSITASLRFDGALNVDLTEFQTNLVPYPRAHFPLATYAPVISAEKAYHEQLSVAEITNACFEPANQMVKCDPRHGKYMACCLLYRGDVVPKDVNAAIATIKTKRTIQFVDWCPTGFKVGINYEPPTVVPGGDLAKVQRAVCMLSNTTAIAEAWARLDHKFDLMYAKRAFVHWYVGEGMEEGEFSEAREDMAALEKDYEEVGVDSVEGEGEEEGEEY

microtubule-end residence time	percent of microtubule end interaction events longer than 2 s	Binder
2.03 s	31.5%	B1
0.59 s	0%	B2
0.65 s	0%	B3
0.59 s	0.9%	B4

biological target: Unpolymerized GDP-tubulin (porcine brain) (porcine) (UniProt P02550); experiment: not given

tubulin-stimulated ATPase (0.1 µM MCAK, 10 µM unpolymerized GDP-tubulin)	Binder
0.204 s⁻¹	B1
0.184 s⁻¹	B2
0.205 s⁻¹	B3
0.195 s⁻¹	B4

biological target: GMPCPP-stabilized microtubules of porcine brain tubulin (porcine) (UniProt P02550); experiment: not given

depolymerization rate of individual GMPCPP microtubules with 40 nM MCAK	microtubule-stimulated ATPase (0.1 µM MCAK, 10 µM GMPCPP-stabilized microtubules)	Binder
2.12 μm min^−1	3.16 s⁻¹	B1
0.13 μm min^−1	0.72 s⁻¹	B2
0.29 μm min^−1	0.66 s⁻¹	B3
0.1 μm min^−1	0.16 s⁻¹	B4
